Target: T1, SHMT2 K281S-R284S K302S;R305S (UniProt P34897)
T1 sequence: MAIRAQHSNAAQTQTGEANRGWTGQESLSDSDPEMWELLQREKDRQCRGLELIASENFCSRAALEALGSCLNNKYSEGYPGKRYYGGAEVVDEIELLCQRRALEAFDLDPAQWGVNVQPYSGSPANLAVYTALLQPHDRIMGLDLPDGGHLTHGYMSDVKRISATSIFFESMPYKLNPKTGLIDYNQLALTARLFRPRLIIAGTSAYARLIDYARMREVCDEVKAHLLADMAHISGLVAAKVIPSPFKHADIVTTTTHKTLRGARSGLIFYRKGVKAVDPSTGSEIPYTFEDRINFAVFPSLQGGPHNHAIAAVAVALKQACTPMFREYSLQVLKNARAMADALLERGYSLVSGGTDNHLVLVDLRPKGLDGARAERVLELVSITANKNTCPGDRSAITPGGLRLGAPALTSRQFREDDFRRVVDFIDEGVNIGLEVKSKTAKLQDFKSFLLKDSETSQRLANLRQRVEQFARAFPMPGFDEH
Test: EMSA
Details: EMSA: 20 mM HEPES pH 7.4, 150 mM NaCl, 20 ug/ml BSA, 0.1 ug tRNA, RNase inhibitor, 8% glycerol, 25 C, 30 min; 4% native PAGE in 0.5x TBE

GGGAUAAAGAAAAAAGCGGUGAGUGGGCGAACUACAAUUCCCAAAAGGCCACAAAGGGGCCACCACUACGCAUGCGUAGAUCCCUCCCGUUAGCUUUGGCGCCUCAGCGAGCUCUUCUCGCGCAUGCGUUCUCCGAACGGUCUUCUUCCGACAGCUUGCUGCCCUAGACCAGAGUUGGUGGCUGGACCUCCUGCGACUUCCGAGUUGCG [UTR2 RNA]
Kd: 1.6 µM
